Data reported in PMC4631893, “Pseudomonas aeruginosa Exopolyphosphatase Is Also a Polyphosphate: ADP Phosphotransferase” (Enzyme Research, 2015).

How the values were obtained:
[1] = test system: Nc1ncnc2c1ncn2[C@@H]1O[C@H](COP(=O)(O)OP(=O)(O)O)[C@@H](O)[C@H]1O; assay: phosphotransferase activity, ATP by luciferin-luciferase; format: biochemical, Pseudomonas aeruginosa; conditions: polyP25 or polyP65 as phosphate donor, 5 mM Mg2+, Tris-HCl pH 8.0, 37°C, one rounded value for both variants and both polyP, data not shown
paPpx(1–506) = target: T1, paPpx(1–506) (Pseudomonas aeruginosa, UniProt Q9ZN70); conditions: 8 μM polyP65, 5 mM Mg2+, Tris-HCl pH 8.0, 37°C; nonessential activator, sigmoid curve
T1 construct: gene ppx
T1 sequence (Q9ZN70 whole entry): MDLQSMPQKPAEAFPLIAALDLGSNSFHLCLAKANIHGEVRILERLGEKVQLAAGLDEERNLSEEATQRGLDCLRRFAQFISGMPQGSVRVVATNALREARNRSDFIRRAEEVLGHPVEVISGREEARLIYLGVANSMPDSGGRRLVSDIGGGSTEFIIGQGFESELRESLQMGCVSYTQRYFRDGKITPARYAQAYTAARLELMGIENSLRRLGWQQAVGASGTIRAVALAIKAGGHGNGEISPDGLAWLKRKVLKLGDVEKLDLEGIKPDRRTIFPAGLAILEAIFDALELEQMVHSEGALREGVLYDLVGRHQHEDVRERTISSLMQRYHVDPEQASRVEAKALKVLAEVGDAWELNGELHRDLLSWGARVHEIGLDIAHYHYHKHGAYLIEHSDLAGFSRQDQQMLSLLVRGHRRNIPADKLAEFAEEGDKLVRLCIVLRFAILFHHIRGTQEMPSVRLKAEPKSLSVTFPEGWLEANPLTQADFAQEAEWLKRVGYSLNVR

Row | Molecule | Km [1] [µM] | K 0.5(app)NH4^+ (paPpx(1–506)) [mM]
1 | N-paPpx(1–314) (Pseudomonas aeruginosa PAO1) | 90 | 
2 | N [NH4^+] |  | 10 ± 0.4
3 | paPpx(1–506) (Pseudomonas aeruginosa PAO1) | 90 | 
